From patent US20220306739A1

Target: T cell receptor gamma variable 9 (TRGV9) on human γδ T cells (human) (UniProt Q99603)
Assay: γδ T-cell binding (γδ-enriched T cells), readout 'Signal'

B1: VG9B2, chimera human IgG1 mAb (silent Fc) of mouse anti-human TCR Vγ9 clone B3 (antibody, V domains shown)
VH: QGQMQQSGAELVKPGASVKLSCKTSGFTFSSNYISWLKQKPGQSLEWIAWIHGGTGGIGYNQKFTGKAQLTVDTSSTTAYMQFSSLTTEDSAIYYCARRGYGAWFAYWGQGTLVTVSA
VL: DIQMTQSPASLSASVGETVTITCRASENIHNYLAWYQQKQGKSPQLLVYNAKTLADGVPSRFSGSGSGTQYSLKINSLQPEDFGNYYCQHFWSYPLTFGAGTKLELK
  EC50: 0.56 nM
